Measurements reported in paper PMC11931385, “Structural and functional analysis of cancer-associated missense variants in the retinoblastoma protein pocket domain” (The Journal of Biological Chemistry, 2025).
Numbering of substitutions follows the chain as printed. Names may count otherwise. No end group written: not given here. TMR = tetramethyl rhodamine dye

T1: retinoblastoma protein pocket domain (Rb^P), wild type (human, UniProt P06400 380-788)
T1 construct: also called WT Rb^P; WT
T1 sequence (looked up): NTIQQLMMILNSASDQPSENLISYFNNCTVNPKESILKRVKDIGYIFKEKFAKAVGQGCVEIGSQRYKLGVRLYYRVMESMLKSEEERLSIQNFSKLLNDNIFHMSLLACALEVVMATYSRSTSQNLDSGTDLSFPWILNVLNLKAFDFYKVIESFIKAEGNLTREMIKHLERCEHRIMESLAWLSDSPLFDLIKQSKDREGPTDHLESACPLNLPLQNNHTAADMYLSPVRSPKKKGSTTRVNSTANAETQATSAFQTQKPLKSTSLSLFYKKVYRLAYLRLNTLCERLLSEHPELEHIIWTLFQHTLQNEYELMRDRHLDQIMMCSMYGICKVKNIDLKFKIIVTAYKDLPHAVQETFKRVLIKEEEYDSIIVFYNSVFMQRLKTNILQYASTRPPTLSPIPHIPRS

T2: Rb^P E554K (human, UniProt P06400 380-788, E554K)
T2 construct: also called variant 28
T2 sequence (looked up): T1 sequence (looked up) with E175K

B1: TMR-E2F1^TD, peptide of the E2F1 transactivation domain (peptide)
peptide: {TMR}-GEGIRDLFDCDFGDLTPLD
notes: also called E2F^TD; source: synthetic peptide, bought: GenScript
B2: TMR-E7^LxCxE, LxCxE peptide of the E7 oncoprotein from HPV (peptide)
peptide: DLYCYEQLN
modifications: also: TMR label, position not given here
notes: source: synthetic peptide, bought: GenScript

Assays:
[1] = biological target: T1, retinoblastoma protein pocket domain …; assay: fluorescence polarisation; 25 °C after warming to 37 °C (7 min ramp, 2 min at 37 °C), 1 min on ice and 3 min at 25 °C; unlabeled Rb^P against 1.5 nM TMR-E2F1^TD or 7.5 nM TMR-E7^LxCxE; 25 mM Tris pH 8.0, 200 mM NaCl, 1 mM DTT, 0.1% Tween-20; apparent Kd; conditions: both partners purified
Rb^P E554K = biological target: T2, Rb^P E554K; assay: as above; conditions: both partners purified

Binder | Kd [1] | Kd (Rb^P E554K)
B1 | 17 nM | 1740 nM
B2 | 7 nM | 24 nM
